Measurements as given in patent US20140303084.
Substitutions are numbered along the chain they refer to.

How the values were obtained:
[1] = tested on: T1, DAKVAKLRCLGSQCWLLQYAPG
T1 sequence: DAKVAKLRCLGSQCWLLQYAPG

[2] = tested on: T2, PRIRTVGPGSRRASGKLTCLASYCWLFWTGIA
T2 sequence: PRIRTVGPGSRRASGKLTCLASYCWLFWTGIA

[3] = tested on: T3, WRAGLDESQR DRAPG KLTCLASYCWLFWTGIA
T3 sequence: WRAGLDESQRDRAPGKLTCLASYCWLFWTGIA

[4] = tested on: T4, KLTCLASYCWL-MePhe
T4 sequence: KLTCLASYCWLF

[5] = tested on: T5, RRAPGKLQCLASYCWLFKTGIA
T5 sequence: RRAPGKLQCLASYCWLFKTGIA

[6] = tested on: T6, compound 20
T6 sequence: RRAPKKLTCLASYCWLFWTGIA

[7] = tested on: T7, TGLLQGRRDE RARPP KLTCLASYCWLFWTGIA
T7 sequence: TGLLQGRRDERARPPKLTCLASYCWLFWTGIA

[8] = tested on: T8, KLTCLASYCWYF
T8 sequence: KLTCLASYCWYF

[9] = tested on: T9, SKQGRPISPDrRAAGKLTCLASYCWLFW
T9 sequence: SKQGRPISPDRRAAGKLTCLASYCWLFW

[10] = tested on: T10, RRAPAKLQCLASYCWLFWTGIA
T10 sequence: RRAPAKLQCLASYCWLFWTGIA

[11] = tested on: T11, RRAPGCLTALASYCWLFWTGIA-COOH
T11 sequence: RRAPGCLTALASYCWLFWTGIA

[12] = tested on: T12, SKQGRPISADrRAAGKLTCLASYCWLFWTGIA
T12 sequence: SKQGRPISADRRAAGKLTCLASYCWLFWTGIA

[13] = tested on: T13, KLTCLGSYCWLF
T13 sequence: KLTCLGSYCWLF

[14] = tested on: T14, Pra-PEG4-PRIrTVGPGSrSASGKSTCLASYCWLFWTGIA
T14 sequence: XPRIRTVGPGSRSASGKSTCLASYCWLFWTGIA

[15] = tested on: T15, PRIRTVGPGSRSASGKLTCLASYCWLFWTGI
T15 sequence: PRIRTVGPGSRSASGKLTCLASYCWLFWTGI

[16] = tested on: T16, compound 24
T16 sequence: T12 sequence with A9P

[17] = tested on: T17, SKQGRPISPDRRAAGKLT-Asp-LASY-Orn-WLFWTGIA
T17 sequence: T12 sequence with A9P, C19D, C24X

[18] = tested on: T18, RRAPGKLTCLASYCWLF WTAVG GQPYMLLAWR
T18 sequence: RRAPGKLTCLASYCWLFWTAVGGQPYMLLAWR

[19] = tested on: T19, RRAPGKLTCLASYCWLF WTTWT TAPTTPPLTT
T19 sequence: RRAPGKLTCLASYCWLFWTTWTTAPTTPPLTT

[20] = tested on: T20, KLTcLASYCWLF
T20 sequence: KLTCLASYCWLF

[21] = tested on: T21, KLTCLASYcWLF
T21 sequence: KLTCLASYCWLF

[22] = tested on: T22, RRaPGKLTCLASYCWLFWTGIA
T22 sequence: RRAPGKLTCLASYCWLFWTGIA

[23] = tested on: T23, RRAPGKLTCLASYAWCFWTGIA-COOH
T23 sequence: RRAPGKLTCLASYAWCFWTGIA

[24] = tested on: T24, KLTCLASYCFLF
T24 sequence: KLTCLASYCFLF

[25] = tested on: T25, C(N-ethylmaleimide)-PEG4-LVPR-PEG4-rRAPGKLTCLASYCWLFWTGIA
T25 sequence: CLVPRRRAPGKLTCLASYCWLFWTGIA

[26] = tested on: T26, rRAAGKLTCLASYCWLFATGIA
T26 sequence: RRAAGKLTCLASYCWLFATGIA

[27] = tested on: T27, RRAPGKLQCLASYCWLFWAGIA
T27 sequence: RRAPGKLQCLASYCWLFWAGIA

[28] = tested on: T28, RRAPGKLQCLASYCWLFW
T28 sequence: RRAPGKLQCLASYCWLFW

[29] = tested on: T29, RRAPGKCTALASYAWCFWTGIA-COOH
T29 sequence: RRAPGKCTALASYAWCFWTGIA

[30] = tested on: T30, PRIRTVGPGSRSASGKLTCLASYCWLFATGIA
T30 sequence: T2 sequence with R12S, W28A

[31] = tested on: T31, compound 5
T31 sequence: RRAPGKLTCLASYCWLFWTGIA

[32] = tested on: T32, KLTCLASYAWLF
T32 sequence: KLTCLASYAWLF

[33] = tested on: T33, KLTCQASYCWLF
T33 sequence: KLTCQASYCWLF

[34] = tested on: T34, KLTCLASACWLF
T34 sequence: KLTCLASACWLF

[35] = tested on: T35, RRAPGKLQCLASYCWLFWT
T35 sequence: RRAPGKLQCLASYCWLFWT

[36] = tested on: T36, rRAPGKLTCLASYCWLSWTGIA
T36 sequence: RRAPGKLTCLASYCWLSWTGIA

[37] = tested on: T37, PRIRTVGPGSRSASGKLTCAASYCWLFWTGIA
T37 sequence: T2 sequence with R12S, L20A

[38] = tested on: T38, RRAPGKLTCLASYCWLFWT-Sar-IA
T38 sequence: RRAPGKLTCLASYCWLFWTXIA

[39] = tested on: T39, RKAPGKLQCLASYCWLFWTGIA
T39 sequence: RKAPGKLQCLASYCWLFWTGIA

[40] = tested on: T40, PRIRTVGPGSRSASGKLTCLASYCWLFWSGIA
T40 sequence: T2 sequence with R12S, T29S

[41] = tested on: T41, APGKLQCLASYCWLFWTGIA
T41 sequence: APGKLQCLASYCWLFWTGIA

[42] = tested on: T42, Lys(Me)-LTCLASYCWLF
T42 sequence: KLTCLASYCWLF

[43] = tested on: T43, TQWAQVGPRG RRAQG KLTCLASYCWLFWTGIA
T43 sequence: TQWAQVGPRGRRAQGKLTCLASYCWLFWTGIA

[44] = tested on: T44, ARAPGKLQCLASYCWLFWTGIA
T44 sequence: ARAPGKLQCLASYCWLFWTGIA

[45] = tested on: T45, RRAPGKLTCLK(PEG2-Biotin)SYCWLFWTGIA
T45 sequence: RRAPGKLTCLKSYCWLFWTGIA

[46] = tested on: T46, RRAPGKLTCLASK(PEG2-Biotin)CWLFWTGIA
T46 sequence: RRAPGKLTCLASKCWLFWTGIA

[47] = tested on: T47, RRAPGKLT-Asp-LASY-Lys-WLFWTGIA-CONH2
T47 sequence: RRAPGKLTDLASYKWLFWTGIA

[48] = tested on: T48, aigtwflwcysalctlkgparr (retro-inverso)
T48 sequence: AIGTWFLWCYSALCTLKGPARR

[49] = tested on: T49, RRAPGKLQCLASYCWLFATAIA
T49 sequence: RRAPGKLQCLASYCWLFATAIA

In the case of human Factor IXa, the “Vmax, FXa generation assay; (++) means 1-2” value (“Vmax … (++) means 1-2” below) [1] is reported as “(++)”, the Vmax, FXa generation assay [2] is reported as greater than 3 and the “Vmax … (++) means 1-2” value [3] is reported as “(++)”. The “Vmax … (++) means 1-2” value [4] was “(++)”, the Vmax, FXa generation assay [5] was greater than 0.2 and the Vmax, FXa generation assay with hFIXa [6] was greater than 2. For the same substance, the Vmax, FXa generation assay [7] was greater than 3, the Vmax, FXa generation assay [8] was greater than 2 and the Vmax, FXa generation assay [9] was greater than 3. The Vmax, FXa generation assay [10] was greater than 2, the Vmax, FXa generation assay [11] was greater than 2 and the Vmax, FXa generation assay [12] was greater than 3. For the same substance, the Vmax, FXa generation assay [13] was greater than 2, the “Vmax … (++) means 1-2” value [14] was “(++)” and the Vmax, FXa generation assay [15] was greater than 3. The Vmax, FXa generation assay with hFIXa [16] was greater than 3, the Vmax, FXa generation assay [17] was greater than 3 and the “Vmax … (++) means 1-2” value [18] was “(++)”. The Vmax, FXa generation assay [19] was greater than 2, the Vmax, FXa generation assay [20] was greater than 2 and the Vmax, FXa generation assay [21] was greater than 3. The “Vmax … (++) means 1-2” value [22] was “(++)”, the Vmax, FXa generation assay [23] was greater than 2 and the Vmax, FXa generation assay [24] was greater than 3. For the same substance, the “Vmax … (++) means 1-2” value [25] was “(++)”, the “Vmax … (++) means 1-2” value [26] was “(++)” and the Vmax, FXa generation assay [27] was greater than 3. It also gave a Vmax, FXa generation assay [28] greater than 2, a Vmax, FXa generation assay [29] greater than 2 and a Vmax, FXa generation assay [30] greater than 3. It also gave a KM (nM) of hFIXa for FX [31] of 11 nM, a Vmax, FXa generation assay with hFIXa [31] greater than 2 and a kcat (min^-1) of hFIXa for FX, compound at 1 µM [31] of 0.0179 min⁻¹. The Δ KM (Km compound/Km buffer) [31] was 0.14, the Δ kM of FIXa, FXa generation assay [31] was 0.14 and the Δ kcat of FIXa, FXa generation assay [31] was 199 fold. The “Vmax … (++) means 1-2” value [32] was “(++)”, the “Vmax … (++) means 1-2” value [33] was “(++)” and the Vmax, FXa generation assay [34] was greater than 2. It also gave a Vmax, FXa generation assay [35] greater than 2, a Vmax, FXa generation assay [36] greater than 1.8 and a Vmax, FXa generation assay [37] greater than 2. It also gave a Vmax, FXa generation assay [38] greater than 3, a Vmax, FXa generation assay [39] greater than 2 and a Vmax, FXa generation assay [40] greater than 3. The “Vmax … (++) means 1-2” value [41] was “(++)”, the “Vmax … (++) means 1-2” value [42] was “(++)” and the Vmax, FXa generation assay [43] was greater than 3. The Vmax, FXa generation assay [44] was greater than 2, the “Vmax … (++) means 1-2” value [45] was “(++)” and the “Vmax … (++) means 1-2” value [46] was “(++)”. The Vmax, FXa generation assay [47] was greater than 2, the Vmax, FXa generation assay [48] was greater than 2 and the Vmax, FXa generation assay [49] was greater than 3.
